Blank lines part the entries; values can stand above or below the binder they belong to.
What was measured:
human SIRPα on cells = molecular target: T1, human SIRPα on cells (human, UniProt P78324 31-504); assay: cell binding, Hu SIRPα-CHO-K1 cells, 100 nM antibody
T1 construct: whole, on cells; also called human SIRPα-CHO; Hu SIRPα-CHO-K1

mouse SIRPα on cells = molecular target: T2, mouse SIRPα on cells (mouse, UniProt P97797 32-513); assay: flow cytometry of mouse CD11b positive cells, FL2-H anti-human PE; concentration not given
T2 construct: whole, on cells; also called mouse SIRPα-CHO-K1; Ms SIRPα-CHO-K1
T2 sequence (looked up): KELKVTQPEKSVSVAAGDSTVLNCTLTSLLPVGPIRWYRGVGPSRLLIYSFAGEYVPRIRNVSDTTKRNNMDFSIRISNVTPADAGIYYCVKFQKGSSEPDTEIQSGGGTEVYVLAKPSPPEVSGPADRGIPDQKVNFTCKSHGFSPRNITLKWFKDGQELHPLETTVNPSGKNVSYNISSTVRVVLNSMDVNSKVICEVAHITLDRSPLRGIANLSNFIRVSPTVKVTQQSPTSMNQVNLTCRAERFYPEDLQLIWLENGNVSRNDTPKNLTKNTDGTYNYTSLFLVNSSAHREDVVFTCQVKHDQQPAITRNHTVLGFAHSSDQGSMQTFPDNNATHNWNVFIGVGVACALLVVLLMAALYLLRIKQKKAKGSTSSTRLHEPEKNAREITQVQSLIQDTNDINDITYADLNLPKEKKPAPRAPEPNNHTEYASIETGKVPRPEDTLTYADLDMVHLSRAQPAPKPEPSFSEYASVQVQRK

[1] = molecular target: T3, human SIRPα v6-Fc (SIRPα6 extracellular domain fused to human IGHG1_Fc) (human, UniProt P78324 31-373; P0DOX5 223-449 = IgG part); assay: BLI Octet, antigen-Fc on biosensor;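 also: antigen captured on the biosensor tip and then immersed in solutions of the test antibodies, which act as the analyte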
T3 construct: as m38; also called V6 (e.g. SIRPα6)

cyno SIRPα-Fc = molecular target: T4, cyno SIRPα-Fc (cynomolgus); assay: BLI Octet, antigen-Fc on biosensor;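 also: antigen captured on the biosensor tip and then immersed in solutions of the test antibodies, which act as the analyte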
T4 construct: a signal peptide may be part of the entry

[2] = molecular target: T5, human SIRPα v1-Fc (SIRPα1 extracellular domain fused to human IGHG1_Fc) (human, UniProt P78324 31-373; P0DOX5 223-449 = IgG part); assay: BLI Octet, antigen-Fc on biosensor;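 also: antigen captured on the biosensor tip and then immersed in solutions of the test antibodies, which act as the analyte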
T5 construct: also called V1 (e.g. SIRPα1); SIRPα V1: DLN

[3] = molecular target: T6, human SIRPα v3-Fc (SIRPα3 extracellular domain fused to human IGHG1_Fc) (human, UniProt P78324 31-373; P0DOX5 223-449 = IgG part); assay: BLI Octet, antigen-Fc on biosensor;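 also: antigen captured on the biosensor tip and then immersed in solutions of the test antibodies, which act as the analyte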
T6 construct: as m38; also called V3 (e.g. SIRPα3)

mouse SIRPα-Fc = molecular target: T7, mouse SIRPα-Fc (mouse); assay: BLI Octet, antigen-Fc on biosensor
T7 construct: a signal peptide may be part of the entry; also called Ms; Ms SIRPα-Fc

human SIRPγ-Fc = molecular target: T8, human SIRPγ-Fc (human); assay: BLI Octet, antigen-Fc on biosensor
T8 construct: a signal peptide may be part of the entry

[4] = molecular target: T9, human SIRPα v4-Fc (SIRPα4 extracellular domain fused to human IGHG1_Fc) (human, UniProt P78324 31-373; P0DOX5 223-449 = IgG part); assay: BLI Octet, antigen-Fc on biosensor
T9 construct: as m38; also called V4 (e.g. SIRPα4)

human SIRPβ-Fc = molecular target: T10, human SIRPβ-Fc (human); assay: BLI Octet, antigen-Fc on biosensor
T10 construct: a signal peptide may be part of the entry

[5] = molecular target: T11, human SIRPα v2-Fc (SIRPα2 extracellular domain fused to human IGHG1_Fc) (human, UniProt P78324 31-373; P0DOX5 223-449 = IgG part); assay: BLI Octet, antigen-Fc on biosensor
T11 construct: as m38; also called V2 (e.g. SIRPα2); SIRPα V2:ESE

[6] = molecular target: T12, human SIRPα v5-Fc (SIRPα5 extracellular domain fused to human IGHG1_Fc) (human, UniProt P78324 31-373; P0DOX5 223-449 = IgG part); assay: BLI Octet, antigen-Fc on biosensor
T12 construct: as m38; also called V5 (e.g. SIRPα5)

[7] = molecular target: T13, cynomolgus SIRPα on cells (cynomolgus, UniProt P78324 31-373 (human entry)); assay: cell binding, Cyno SIRPα-CHO-K1 cells, 100 nM antibody
T13 construct: also called cyno SIRPα-CHO; Cyno SIRPα-CHO-K1; not shown: Transmembrane and cytoplasmic region of cynomolgus SIRPα
T13 chain: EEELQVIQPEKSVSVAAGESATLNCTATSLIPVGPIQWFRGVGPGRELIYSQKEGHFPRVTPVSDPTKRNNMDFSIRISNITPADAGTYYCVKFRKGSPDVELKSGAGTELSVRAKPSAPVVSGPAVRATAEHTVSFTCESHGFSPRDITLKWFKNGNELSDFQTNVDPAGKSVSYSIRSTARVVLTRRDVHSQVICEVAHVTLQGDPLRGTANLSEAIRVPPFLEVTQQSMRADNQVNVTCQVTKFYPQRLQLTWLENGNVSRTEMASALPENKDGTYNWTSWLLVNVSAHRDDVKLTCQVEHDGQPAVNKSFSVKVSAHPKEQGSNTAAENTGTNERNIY

FcγR1 (CD64) = molecular target: T14, FcγR1 (CD64) (human, UniProt P12314 16-374); assay: cell binding, FcγR-engineered HEK293 cells
T14 construct: whole, on cells
T14 sequence (P12314 16-374): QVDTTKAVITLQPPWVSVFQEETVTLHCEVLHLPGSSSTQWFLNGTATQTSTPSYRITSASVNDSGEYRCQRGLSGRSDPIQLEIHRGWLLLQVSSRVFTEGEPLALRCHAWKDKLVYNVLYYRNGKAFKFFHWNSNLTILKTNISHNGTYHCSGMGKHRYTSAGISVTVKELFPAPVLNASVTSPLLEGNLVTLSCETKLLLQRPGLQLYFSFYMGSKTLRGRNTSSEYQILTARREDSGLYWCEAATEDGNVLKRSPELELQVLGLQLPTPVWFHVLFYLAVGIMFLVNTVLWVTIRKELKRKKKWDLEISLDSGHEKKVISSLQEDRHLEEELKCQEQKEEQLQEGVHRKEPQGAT

FcγR3A (CD16aV158) = molecular target: T15, FcγR3A (CD16aV158) (human, UniProt P08637 17-254); assay: cell binding, FcγR-engineered HEK293 cells
T15 construct: whole, on cells
T15 sequence (P08637 17-254 F176V): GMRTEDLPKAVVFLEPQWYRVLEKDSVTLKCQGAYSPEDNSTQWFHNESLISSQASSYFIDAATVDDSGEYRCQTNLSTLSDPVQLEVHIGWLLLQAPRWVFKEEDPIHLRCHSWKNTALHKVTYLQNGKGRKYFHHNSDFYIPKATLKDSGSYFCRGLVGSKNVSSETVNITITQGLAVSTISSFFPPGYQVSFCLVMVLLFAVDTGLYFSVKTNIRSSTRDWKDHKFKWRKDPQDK

fold increase over background (100 nM) (human SIRPα on cells): 1890 fold | binding result (mouse SIRPα on cells): no binding | Kd [1]: 0.183 nM | koff [1]: 0.000356 s⁻¹ | kon [1]: 1.94e+06 M⁻¹ s⁻¹ | Kd (cyno SIRPα-Fc): 4.9 nM | koff (cyno SIRPα-Fc): 0.00869 s⁻¹ | kon (cyno SIRPα-Fc): 1.77e+06 M⁻¹ s⁻¹ | Kd [2]: 0.13 nM | koff [2]: 0.0002 s⁻¹ | kon [2]: 1.49e+06 M⁻¹ s⁻¹ | Kd [3]: 0.145 nM | koff [3]: 0.0002 s⁻¹ | kon [3]: 1.38e+06 M⁻¹ s⁻¹ | binding result (mouse SIRPα-Fc): no binding | Kd (human SIRPγ-Fc): 0.13 nM | koff (human SIRPγ-Fc): 0.000205 s⁻¹ | kon (human SIRPγ-Fc): 1.57e+06 M⁻¹ s⁻¹ | Kd [4]: 1.52 nM | koff [4]: 0.00228 s⁻¹ | kon [4]: 1.5e+06 M⁻¹ s⁻¹ | Kd (human SIRPβ-Fc): 0.32 nM | koff (human SIRPβ-Fc): 0.000473 s⁻¹ | kon (human SIRPβ-Fc): 1.49e+06 M⁻¹ s⁻¹ | Kd [5]: 4.4 nM | koff [5]: 0.00559 s⁻¹ | kon [5]: 1.27e+06 M⁻¹ s⁻¹ | Kd [6]: 0.611 nM | koff [6]: 0.00106 s⁻¹ | kon [6]: 1.73e+06 M⁻¹ s⁻¹ | fold increase over background (100 nM) [7]: 1950 fold
B1: SIRPAB-11 (antibody, human IgG1, kappa)
light: DIQMTQSPSSVSASVGDRVTITCRASQGISSWLAWYQQKPGKAPKLLIYAASNLQSGVPSRFSGSGSGTDFTLTISSLQPEDFATYYCQQGASFPITFGGGTKVEIKRTVAAPSVFIFPPSDEQLKSGTASVVCLLNNFYPREAKVQWKVDNALQSGNSQESVTEQDSKDSTYSLSSTLTLSKADYEKHKVYACEVTHQGLSSPVTKSFNRGEC
heavy: not shown
notes: also called SIRPAB-11-IgG1; SIRPAB-11 IgG1 antibody

fold increase over background (100 nM) (human SIRPα on cells): 2350 fold | binding result (mouse SIRPα on cells): no binding | Kd [1]: 1.58 nM | koff [1]: 0.00256 s⁻¹ | kon [1]: 1.63e+06 M⁻¹ s⁻¹ | Kd [2]: 0.81 nM | koff [2]: 0.00107 s⁻¹ | kon [2]: 1.31e+06 M⁻¹ s⁻¹ | Kd [3]: 0.53 nM | koff [3]: 0.000694 s⁻¹ | kon [3]: 1.31e+06 M⁻¹ s⁻¹ | binding result (mouse SIRPα-Fc): no binding | Kd (human SIRPγ-Fc): 1.49 nM | koff (human SIRPγ-Fc): 0.00218 s⁻¹ | kon (human SIRPγ-Fc): 1.46e+06 M⁻¹ s⁻¹ | Kd [4]: 8.13 nM | koff [4]: 0.0109 s⁻¹ | kon [4]: 1.35e+06 M⁻¹ s⁻¹ | Kd (human SIRPβ-Fc): 3.35 nM | koff (human SIRPβ-Fc): 0.00445 s⁻¹ | kon (human SIRPβ-Fc): 1.33e+06 M⁻¹ s⁻¹ | Kd [5]: 15.4 nM | koff [5]: 0.0151 s⁻¹ | kon [5]: 980000 M⁻¹ s⁻¹ | Kd [6]: 4.87 nM | koff [6]: 0.00697 s⁻¹ | kon [6]: 1.43e+06 M⁻¹ s⁻¹ | fold increase over background (100 nM) [7]: 2220 fold
B2: SIRPAB-12 (antibody, human IgG1, kappa)
light: B1 light
heavy: not shown

EC50 (FcγR1 (CD64)): 3180 nM | EC50 (FcγR3A (CD16aV158)): 15100 nM
B3: SIRPAB-11-AAS (antibody, human IgG1, kappa, L234A L235A)
light: B1 light
heavy: QVQLVQSGAEVKKPGASVKVSCKASGYTFRGYGISWVRQAPGQGLEWMGWISAYGGETNYAQKLQGRVTMTTDTSTSTAYMELRSLRSDDTAVYYCAREAGSSWYDFDLWGRGTLVTVSSASTKGPSVFPLAPSSKSTSGGTAALGCLVKDYFPEPVTVSWNSGALTSGVHTFPAVLQSSGLYSLSSVVTVPSSSLGTQTYICNVNHKPSNTKVDKKVEPKSCDKTHTCPPCPAPEAAGGPSVFLFPPKPKDTLMISRTPEVTCVVVSVSHEDPEVKFNWYVDGVEVHNAKTKPREEQYNSTYRVVSVLTVLHQDWLNGKEYKCKVSNKALPAPIEKTISKAKGQPREPQVYTLPPSREEMTKNQVSLTCLVKGFYPSDIAVEWESNGQPENNYKTTPPVLDSDGSFFLYSKLTVDKSRWQQGNVFSCSVMHEALHNHYTQKSLSLSPGK
notes: also called SIRPAB-11-IgG1-AAS

From US20200102387A1 (CELGENE, published 2020)
